Assay results reported in patent US20120094280.

Legend:
[1] = target: T1, M.HpaII DNA cytosine-C5 methyltransferase (UniProt P15446); settings: formaldehyde; CCGG sites resistant to R.HpaII
T1 sequence: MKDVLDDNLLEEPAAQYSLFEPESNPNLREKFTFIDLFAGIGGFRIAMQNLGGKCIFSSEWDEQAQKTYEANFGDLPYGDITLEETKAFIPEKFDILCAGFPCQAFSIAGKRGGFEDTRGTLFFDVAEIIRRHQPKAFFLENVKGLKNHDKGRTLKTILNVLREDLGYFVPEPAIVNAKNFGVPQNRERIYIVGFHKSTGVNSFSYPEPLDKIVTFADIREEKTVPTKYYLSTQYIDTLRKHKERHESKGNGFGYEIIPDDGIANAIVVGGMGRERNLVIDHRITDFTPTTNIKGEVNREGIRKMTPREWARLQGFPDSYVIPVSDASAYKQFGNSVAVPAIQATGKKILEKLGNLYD

[2] = target: M.SssI DNA cytosine-C5 methyltransferase (Spiroplasma sp.?) (UniProt P15840); settings: formaldehyde; GCGC site resistant to R.Hin6I
Chain of M.SssI DNA cytosine-C5 methyltransferase (Spiroplasma sp.?) (P15840 whole entry): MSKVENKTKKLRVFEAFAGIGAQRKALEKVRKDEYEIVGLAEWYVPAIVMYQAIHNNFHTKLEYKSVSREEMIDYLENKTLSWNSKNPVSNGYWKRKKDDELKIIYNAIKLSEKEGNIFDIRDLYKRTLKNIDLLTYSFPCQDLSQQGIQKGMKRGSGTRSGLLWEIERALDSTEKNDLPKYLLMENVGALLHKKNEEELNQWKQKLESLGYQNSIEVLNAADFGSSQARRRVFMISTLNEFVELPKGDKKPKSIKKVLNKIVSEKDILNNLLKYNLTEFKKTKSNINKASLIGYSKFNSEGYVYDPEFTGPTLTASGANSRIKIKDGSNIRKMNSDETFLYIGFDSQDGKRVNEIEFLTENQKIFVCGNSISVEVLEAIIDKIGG

## pUC-618 PCR fragment (618 bp)
[1]
  activity: 70%
[2]
  activity: 70%
